Reference: patent publication US20220402995A1 (TOSOH, published 2022)

How the values were obtained:
[1] = target: T1, AAV2-EGFP (AAV vector of serotype 2 carrying an EGFP gene) (AAV2, UniProt P03135 1-735; P03135 1-598; P03135 1-533); assay: mini column of immobilised protein loaded to breakthrough; AAV2-EGFP recovered by elution at pH 3.0, qPCR
T1 construct: Genome-containing AAV2 particle; amounts counted as vector genomes (VG) by qPCR

[2] = target: T2, VLP2 (virus-like particles of AAV2) (AAV2, UniProt P03135 1-735; P03135 1-598; P03135 1-533); assay: ELISA on VLP2; binding after 43°C 15 min / untreated
T2 construct: Empty AAV2 capsid; background says about 60 protein molecules, VP1:VP2:VP3 = 1:1:10; Immobilised on the ELISA plate

[3] = target: T2, VLP2 (virus-like particles of AAV2); assay: ELISA on VLP2; A450 after pH 2.5 30°C 24 h / untreated
[4] = target: T2, VLP2 (virus-like particles of AAV2); assay: ELISA on VLP2; A450 after 66.1°C 15 min / untreated
[5] = target: T2, VLP2 (virus-like particles of AAV2); assay: ELISA on VLP2; A450 after 50.3°C 15 min / untreated
[6] = target: T2, VLP2 (virus-like particles of AAV2); assay: ELISA on VLP2; A450 after pH 2.5 30°C 2 h / untreated
[7] = target: T2, VLP2 (virus-like particles of AAV2); assay: ELISA on VLP2; A450 after pH 3.0 89.8°C 15 min / 25°C
[8] = target: T2, VLP2 (virus-like particles of AAV2); assay: ELISA on VLP2; A450 after pH 3.0 80.8°C 15 min / 25°C
[9] = target: T2, VLP2 (virus-like particles of AAV2); assay: ELISA on VLP2; A450 after pH 3.0 66.1°C 15 min / 25°C
[10] = target: T2, VLP2 (virus-like particles of AAV2); assay: ELISA on VLP2; A450 after pH 3.0 60.1°C 15 min / 25°C
[11] = target: T2, VLP2 (virus-like particles of AAV2); assay: ELISA on VLP2; A450 after pH 3.0 51.5°C 15 min / 25°C
[12] = target: T2, VLP2 (virus-like particles of AAV2); assay: ELISA on VLP2; binding after pH 3.0 51.1°C 15 min / untreated;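 further: binding of the heat-treated AAV-binding protein to VLP2, expressed as a percentage of the binding of the same protein without heating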
[13] = target: T2, VLP2 (virus-like particles of AAV2); assay: ELISA on VLP2; binding after pH 3.0 61.0°C 15 min / untreated
[14] = target: T2, VLP2 (virus-like particles of AAV2); assay: ELISA on VLP2; binding after pH 10.0 41.2°C 15 min / untreated

T2 sequence (P03135 whole entry, chain 1 of 3): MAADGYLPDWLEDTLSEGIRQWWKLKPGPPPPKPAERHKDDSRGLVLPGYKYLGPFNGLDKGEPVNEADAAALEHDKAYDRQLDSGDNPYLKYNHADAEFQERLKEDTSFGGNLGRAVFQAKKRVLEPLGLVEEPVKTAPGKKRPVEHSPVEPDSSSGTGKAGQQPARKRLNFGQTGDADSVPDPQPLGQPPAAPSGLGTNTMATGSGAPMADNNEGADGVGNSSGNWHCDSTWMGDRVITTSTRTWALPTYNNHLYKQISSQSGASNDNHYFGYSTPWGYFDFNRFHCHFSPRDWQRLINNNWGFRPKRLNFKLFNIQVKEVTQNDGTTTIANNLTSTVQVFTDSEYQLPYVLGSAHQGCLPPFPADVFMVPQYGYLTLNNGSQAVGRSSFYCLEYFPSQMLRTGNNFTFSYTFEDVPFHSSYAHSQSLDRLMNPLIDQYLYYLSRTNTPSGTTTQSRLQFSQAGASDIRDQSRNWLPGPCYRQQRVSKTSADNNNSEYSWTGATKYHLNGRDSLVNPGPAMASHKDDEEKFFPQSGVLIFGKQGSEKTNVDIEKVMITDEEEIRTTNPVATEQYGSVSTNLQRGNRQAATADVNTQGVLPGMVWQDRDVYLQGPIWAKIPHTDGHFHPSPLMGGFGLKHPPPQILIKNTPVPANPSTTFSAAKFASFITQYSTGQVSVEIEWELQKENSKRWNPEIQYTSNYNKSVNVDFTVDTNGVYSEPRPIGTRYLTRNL
T2 sequence (P03135 139-735, tags left off, chain 2 of 3): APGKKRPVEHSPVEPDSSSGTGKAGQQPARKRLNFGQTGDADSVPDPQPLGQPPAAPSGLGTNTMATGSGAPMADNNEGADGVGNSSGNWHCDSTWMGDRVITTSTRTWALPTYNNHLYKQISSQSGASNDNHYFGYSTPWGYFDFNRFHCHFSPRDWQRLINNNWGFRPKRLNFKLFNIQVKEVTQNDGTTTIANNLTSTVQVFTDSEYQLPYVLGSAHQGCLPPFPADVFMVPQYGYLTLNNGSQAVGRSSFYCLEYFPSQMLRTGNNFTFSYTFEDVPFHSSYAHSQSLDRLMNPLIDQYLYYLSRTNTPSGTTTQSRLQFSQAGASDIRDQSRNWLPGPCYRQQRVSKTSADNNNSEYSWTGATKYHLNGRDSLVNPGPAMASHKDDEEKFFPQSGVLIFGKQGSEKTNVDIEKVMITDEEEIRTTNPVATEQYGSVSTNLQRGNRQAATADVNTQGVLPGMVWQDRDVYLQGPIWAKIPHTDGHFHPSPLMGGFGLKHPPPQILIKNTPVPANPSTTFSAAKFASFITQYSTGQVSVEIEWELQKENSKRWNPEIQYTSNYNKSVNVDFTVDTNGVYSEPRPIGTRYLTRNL
T2 sequence (P03135 203-735, chain 3 of 3): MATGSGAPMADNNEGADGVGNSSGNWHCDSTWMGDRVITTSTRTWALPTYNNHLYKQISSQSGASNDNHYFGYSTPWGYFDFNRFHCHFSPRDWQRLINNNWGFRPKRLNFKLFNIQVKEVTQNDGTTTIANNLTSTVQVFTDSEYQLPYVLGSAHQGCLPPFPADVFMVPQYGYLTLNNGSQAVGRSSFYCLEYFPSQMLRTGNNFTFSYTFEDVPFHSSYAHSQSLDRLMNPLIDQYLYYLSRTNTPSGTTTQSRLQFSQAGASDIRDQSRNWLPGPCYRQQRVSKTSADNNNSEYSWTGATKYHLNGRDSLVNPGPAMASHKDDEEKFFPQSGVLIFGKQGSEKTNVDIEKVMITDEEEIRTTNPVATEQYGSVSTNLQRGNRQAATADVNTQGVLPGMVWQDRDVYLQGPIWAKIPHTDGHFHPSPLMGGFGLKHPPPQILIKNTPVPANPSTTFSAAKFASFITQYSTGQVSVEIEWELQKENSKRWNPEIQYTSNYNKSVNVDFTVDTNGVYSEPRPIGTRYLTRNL
T1 sequence (P03135 whole entry, chain 1 of 3, the tested form may be a part): as the sequence (P03135 whole entry, chain 1 of 3) above
T1 sequence (P03135 139-735, tags left off, chain 2 of 3): as the sequence (P03135 139-735, tags left off, chain 2 of 3) above
T1 sequence (P03135 203-735, chain 3 of 3): as the sequence (P03135 203-735, chain 3 of 3) above

B1: AVR3HC (protein having an immobilization tag at the C-terminus of AVR3) (receptor)
chain: MGSAGESVQITLPKNEVQLNAYVLQEPPKGETCTYDWQLITHPRDYSGEMEGKHSQILKLSKLTPGLYEFKVIVEGQNAHSEGYVNVTVKPEPRKNRPPIAIVSPQFQEISLPTTSTVIDGSQSTDDDKIVQYHWEELKGPLREEKISEDTAILKLSKLVPGNYTFRLTVVDSDGATNSTTANLTVNKAVDHHHHHHCRNDTCG
notes: Immobilised on gel; also called AVR3HC-immobilized gel
In the case of B1, the “amount of AAV2-EGFP bound per 1 mL of protein-immobilized gel” value [1] is reported as 2.8e+12 VG/mL (gel).

B2: AVR8gHC (protein having an immobilization tag at the C-terminus of AVR8g) (receptor)
chain: MGSAGESDQITLPKNEVQLNAYVLQEPPKGETCTYDWQLITHPRDYSGEMEGEHSQILKLSNLTPGLYEFKVIVEGQNAHSEGYVNVTVEPEPRKNRPPIAIVSPQFQEISLPTTSTVIDGSQSTDDDKIVQYHWEELKGPLREEKISEDTAILKLSKLVPGNYTFRLTVVDSDGATDSTTANLTVNKAVDHHHHHHCRNDTCG
notes: Immobilised on gel; also called AVR8gHC-immobilized gel
B2 was tested, and the “amount of AAV2-EGFP bound per 1 mL of protein-immobilized gel” value [1] was 1.2e+13 VG/mL (gel).

B3: AAV-binding protein No. 49 (Tyr331Cys, Thr343Met, Tyr355Cys) (receptor)
chain: MGSAGESVQITLPKNEVQLNACVLQEPPKGETYMYDWQLITHPRDCSGEMEGKHSQILKLSKLTPGLYEFKVIVEGQNAHGEGYVNVTVKPEPRKNRPPIAIVSPQFQEISLPTTSTVIDGSQSTDDDKIVQYHWEELKGPLREEKISEDTAILKLSKLVPGNYTFSLTVVDSDGATNSTTANLTVNKAVDHHHHHH
With B3 the “Residual activity [%]” value [2] was 97.7%, the “Residual activity [%]” value [3] was 16.6% and the “Residual activity [%]” value [4] was 57.3%. The “Residual activity [%]” value [5] was 77.3% and the “Residual activity [%]” value [6] was 52.8%.

B4: AVR8a (Val317Asp, Asn324Asp, Tyr342Cys, Lys362Glu, Gly390Ser, Lys399Glu, Ser476Arg, Asn487Asp) (receptor)
chain: MGSAGESDQITLPKDEVQLNAYVLQEPPKGETCTYDWQLITHPRDYSGEMEGEHSQILKLSKLTPGLYEFKVIVEGQNAHSEGYVNVTVEPEPRKNRPPIAIVSPQFQEISLPTTSTVIDGSQSTDDDKIVQYHWEELKGPLREEKISEDTAILKLSKLVPGNYTFRLTVVDSDGATDSTTANLTVNKAVDHHHHHH
With B4 the “Residual activity after heat treatment [%]” value [7] was 52% and the “Residual activity after heat treatment [%]” value [8] was 66%.

B5: AVR5b (Ile319Phe, Lys323Glu, Tyr342Cys, Gly390Ser, Ser476Arg) (receptor)
chain: MGSAGESVQFTLPENEVQLNAYVLQEPPKGETCTYDWQLITHPRDYSGEMEGKHSQILKLSKLTPGLYEFKVIVEGQNAHSEGYVNVTVKPEPRKNRPPIAIVSPQFQEISLPTTSTVIDGSQSTDDDKIVQYHWEELKGPLREEKISEDTAILKLSKLVPGNYTFRLTVVDSDGATNSTTANLTVNKAVDHHHHHH
B5 was tested, and the “Residual activity after heat treatment [%]” value [9] was 23%, the “Residual activity after heat treatment [%]” value [10] was 43% and the “Residual activity after heat treatment [%]” value [11] was 87%.

B6: AVR3 (AAV-binding protein No. 75; Tyr342Cys, Gly390Ser, Ser476Arg) (receptor)
chain: MGSAGESVQITLPKNEVQLNAYVLQEPPKGETCTYDWQLITHPRDYSGEMEGKHSQILKLSKLTPGLYEFKVIVEGQNAHSEGYVNVTVKPEPRKNRPPIAIVSPQFQEISLPTTSTVIDGSQSTDDDKIVQYHWEELKGPLREEKISEDTAILKLSKLVPGNYTFRLTVVDSDGATNSTTANLTVNKAVDHHHHHH
With B6 the “Residual activity [%]” value [12] was 96.3%, the “Residual activity after heat treatment [%]” value [9] was 2% and the “Residual activity after heat treatment [%]” value [10] was 3%. For the same binder, the “Residual activity after heat treatment [%]” value [11] was 21%.

B7: AVR7a (AAV-binding protein No. 93; AVR5e + Asn324Asp, Lys362Glu) (receptor)
chain: MGSAGESVQITLPKDEVQLNAYVLQEPPKGETCTYDWQLITHPRDYSGEMEGEHSQILKLSKLTPGLYEFKVIVEGQNAHSEGYVNVTVEPEPRKNRPPIAIVSPQFQEISLPTTSTVIDGSQSTDDDKIVQYHWEELKGPLREEKISEDTAILKLSKLVPGNYTFRLTVVDSDGATDSTTANLTVNKAVDHHHHHH
For B7, the “Residual activity [%]” value [13] was 50.7%, the “Residual activity after heat treatment [%]” value [7] was 54% and the “Residual activity after heat treatment [%]” value [8] was 57%.

B8: AAV-binding protein No. 53 (Asp354Gly, Leu369Gln, Lys455Arg) (receptor)
chain: MGSAGESVQITLPKNEVQLNAYVLQEPPKGETYTYDWQLITHPRGYSGEMEGKHSQILKQSKLTPGLYEFKVIVEGQNAHGEGYVNVTVKPEPRKNRPPIAIVSPQFQEISLPTTSTVIDGSQSTDDDKIVQYHWEELKGPLREERISEDTAILKLSKLVPGNYTFSLTVVDSDGATNSTTANLTVNKAVDHHHHHH
B8 was tested, and the “Residual activity [%]” value [2] was 90.5%, the “Residual activity [%]” value [3] was 13.2% and the “Residual activity [%]” value [4] was 23.5%. For the same binder, the “Residual activity [%]” value [5] was 29.8% and the “Residual activity [%]” value [6] was 18.2%.

B9: AVR4a (Ile319Phe, Tyr342Cys, Gly390Ser, Ser476Arg) (receptor)
chain: MGSAGESVQFTLPKNEVQLNAYVLQEPPKGETCTYDWQLITHPRDYSGEMEGKHSQILKLSKLTPGLYEFKVIVEGQNAHSEGYVNVTVKPEPRKNRPPIAIVSPQFQEISLPTTSTVIDGSQSTDDDKIVQYHWEELKGPLREEKISEDTAILKLSKLVPGNYTFRLTVVDSDGATNSTTANLTVNKAVDHHHHHH
For B9, the “Residual activity after heat treatment [%]” value [9] was 8%, the “Residual activity after heat treatment [%]” value [10] was 16% and the “Residual activity after heat treatment [%]” value [11] was 57%.

B10: AVR5e (Tyr342Cys, Gly390Ser, Lys399Glu, Ser476Arg, Asn487Asp) (receptor)
chain: MGSAGESVQITLPKNEVQLNAYVLQEPPKGETCTYDWQLITHPRDYSGEMEGKHSQILKLSKLTPGLYEFKVIVEGQNAHSEGYVNVTVEPEPRKNRPPIAIVSPQFQEISLPTTSTVIDGSQSTDDDKIVQYHWEELKGPLREEKISEDTAILKLSKLVPGNYTFRLTVVDSDGATDSTTANLTVNKAVDHHHHHH
B10 was tested, and the “Residual activity [%]” value [13] was 25.5%, the “Residual activity after heat treatment [%]” value [9] was 43% and the “Residual activity after heat treatment [%]” value [10] was 56%. For the same binder, the “Residual activity after heat treatment [%]” value [11] was 77%.

B11: AVR4d (Tyr342Cys, Gly390Ser, Ser476Arg, Asn487Asp) (receptor)
chain: MGSAGESVQITLPKNEVQLNAYVLQEPPKGETCTYDWQLITHPRDYSGEMEGKHSQILKLSKLTPGLYEFKVIVEGQNAHSEGYVNVTVKPEPRKNRPPIAIVSPQFQEISLPTTSTVIDGSQSTDDDKIVQYHWEELKGPLREEKISEDTAILKLSKLVPGNYTFRLTVVDSDGATDSTTANLTVNKAVDHHHHHH
For B11, the “Residual activity after heat treatment [%]” value [9] was 18%, the “Residual activity after heat treatment [%]” value [10] was 35% and the “Residual activity after heat treatment [%]” value [11] was 66%.

B12: AVR2 (AAV-binding protein No. 32, Tyr342Cys-Gly390Ser substitution product) (receptor)
chain: MGSAGESVQITLPKNEVQLNAYVLQEPPKGETCTYDWQLITHPRDYSGEMEGKHSQILKLSKLTPGLYEFKVIVEGQNAHSEGYVNVTVKPEPRKNRPPIAIVSPQFQEISLPTTSTVIDGSQSTDDDKIVQYHWEELKGPLREEKISEDTAILKLSKLVPGNYTFSLTVVDSDGATNSTTANLTVNKAVDHHHHHH
With B12 the “Residual activity [%]” value [2] was 97.6%, the “Residual activity [%]” value [3] was 64.7% and the “Residual activity [%]” value [4] was 70.5%. For the same binder, the “Residual activity [%]” value [12] was 25.5%, the “Residual activity [%]” value [5] was 76% and the “Residual activity [%]” value [6] was 70.7%.

B13: AVR8g (Val317Asp, Tyr342Cys, Lys362Glu, Lys371Asn, Gly390Ser, Lys399Glu, Ser476Arg, Asn487Asp) (receptor)
chain: MGSAGESDQITLPKNEVQLNAYVLQEPPKGETCTYDWQLITHPRDYSGEMEGEHSQILKLSNLTPGLYEFKVIVEGQNAHSEGYVNVTVEPEPRKNRPPIAIVSPQFQEISLPTTSTVIDGSQSTDDDKIVQYHWEELKGPLREEKISEDTAILKLSKLVPGNYTFRLTVVDSDGATDSTTANLTVNKAVDHHHHHH
With B13 the “Residual activity after heat treatment [%]” value [7] was 55%, the “Residual activity after heat treatment [%]” value [8] was 67% and the “Residual activity [%]” value [14] was 23.1%.
